Values of other authors as cited in patent publication US8021659B2, “Coenzyme Q10, lactoferrin and angiogenin compositions and uses thereof” (Naidu LP, priority 2006, dated 2011).

Tests used:
osteoblasts = details: up to

B1: LF: 79-kDa glycoprotein present in every mucosal secretion of the human body; metal-transport protein (protein, UniProt P02788 20-710, looked up)
Lactotransferrin: GRRRSVQWCAVSQPEATKCFQWQRNMRKVRGPPVSCIKRDSPIQCIQAIAENRADAVTLDGGFIYEAGLAPYKLRPVAAEVYGTERQPRTHYYAVAVVKKGGSFQLNELQGLKSCHTGLRRTAGWNVPIGTLRPFLNWTGPPEPIEAAVARFFSASCVPGADKGQFPNLCRLCAGTGENKCAFSSQEPYFSYSGAFKCLRDGAGDVAFIRESTVFEDLSDEAERDEYELLCPDNTRKPVDKFKDCHLARVPSHAVVARSVNGKEDAIWNLLRQAQEKFGKDKSPKFQLFGSPSGQKDLLFKDSAIGFSRVPPRIDSGLYLGSGYFTAIQNLRKSEEEVAARRARVVWCAVGEQELRKCNQWSGLSEGSVTCSSASTTEDCIALVLKGEADAMSLDGGYVYTAGKCGLVPVLAENYKSQQSSDPDPNCVDRPVEGYLAVAVVRRSDTSLTWNSVKGKKSCHTAVDRTAGWNIPMGLLFNQTGSCKFDEYFSQSCAPGSDPRSNLCALCIGDEQGENKCVPNSNERYYGYTGAFRCLAENAGDVAFVKDVTVLQNTDGNNNEAWAKDLKLADFALLCLDGKRKPVTEARSCHLAMAPNHAVVSRMDKVERLKQVLLHQQAKFGRNGSDCPDKFCLFQSETKNLLFNDNTECLARLHGKTTYEKYLGPQYVAGITNLKKCSTSPLLEACEFLRK
time to peak level in plasma (absorption in the intestinal tract): ≤ 2 h
mean fractional catabolic rate (elimination from the plasma by liver and spleen): 5.7 day⁻¹
reduction of the rate at which osteoblasts die (osteoblasts): 50-70%
